Laboratory results published in patent USRE43497.

What was measured:
Assay in all cases: cell-based or functional assay
[1] = biological target: SV40-AD
[2] = biological target: Jab1-AD (GAL4 activation domain fusion with human p38^Jab1 amino acids 20-335) (human) (UniProt Q92905)
[3] = biological target: GAL4-AD (UniProt P04386)
GAL4-AD, sequence (P04386 768-881 limits assumed): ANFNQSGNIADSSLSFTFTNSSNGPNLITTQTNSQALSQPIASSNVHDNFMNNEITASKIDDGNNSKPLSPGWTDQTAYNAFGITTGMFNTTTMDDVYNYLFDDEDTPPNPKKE

Jab1-AD (GAL4 activation domain fusion with human p38^Jab1 amino acids 20-335) (human), sequence (Q92905 20-334 limits assumed): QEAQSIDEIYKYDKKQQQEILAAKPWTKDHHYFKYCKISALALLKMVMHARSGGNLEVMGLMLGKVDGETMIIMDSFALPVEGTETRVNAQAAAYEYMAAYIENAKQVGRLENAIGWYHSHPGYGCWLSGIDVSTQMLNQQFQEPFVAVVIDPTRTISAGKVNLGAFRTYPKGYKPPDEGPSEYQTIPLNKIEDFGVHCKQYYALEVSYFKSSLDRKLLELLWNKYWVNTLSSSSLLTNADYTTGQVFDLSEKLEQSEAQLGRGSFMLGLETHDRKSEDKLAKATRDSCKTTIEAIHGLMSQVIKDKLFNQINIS

Substance	beta-galactosidase activity, liquid media assay (yeast two-hybrid) [1]	beta-galactosidase activity, liquid media assay (yeast two-hybrid) [2]	beta-galactosidase activity, liquid media assay (yeast two-hybrid) [3]
p53-BD	99 Miller units		
GAL4-BD (from UniProt P04386 1-147)		0.3 Miller units	0.1 Miller units
